Source: US20260109742A1 (LUMEN BIOSCIENCE, published 2026)

B1: PP1895 (S3B-C8_smAKAP-C70S_C78S_S3B-C8_H6) (bispecific antibody)
chain: MSGQVQLVESGGGLVQPGGSLRLSCAASGSIENIERMHWYRQAPGKQRELVAVIDSGGTTRYADSVKGRFTISRDNAKNTVYLQMNSLKPEDTAVYYCAAVWLTNAESTQEYWGQGTQVTVSSGGTVILEYAHRLSQDILSDALQQWASSGGGGSGGGGGQVQLVESGGGLVQPGGSLRLSCAASGSIENIERMHWYRQAPGKQRELVAVIDSGGTTRYADSVKGRFTISRDNAKNTVYLQMNSLKPEDTAVYYCAAVWLTNAESTQEYWGQGTQVTVSSGGSHHHHHH
B2: PP2455 (myctag-S3b-C8-smAKAP_R63E_C70S_C78G-S3b-C8-H6) (bispecific antibody)
chain: MEQKLISEEDLSGGQVQLVESGGGLVQPGGSLRLSCAASGSIENIERMHWYRQAPGKQRELVAVIDSGGTTRYADSVKGRFTISRDNAKNTVYLQMNSLKPEDTAVYYCAAVWLTNAESTQEYWGQGTQVTVSSGGGGSTVILEYAHELSQDILSDALQQWAGGGSGSQVQLVESGGGLVQPGGSLRLSCAASGSIENIERMHWYRQAPGKQRELVAVIDSGGTTRYADSVKGRFTISRDNAKNTVYLQMNSLKPEDTAVYYCAAVWLTNAESTQEYWGQGTQVTVSSHHHHHH
notes: also called R63E mutant
B3: PP2456 (myctag-S3b-C8-smAKAP_R63E_C70S_W76S_C78G-S3b-C8-H6) (bispecific antibody)
chain: MEQKLISEEDLSGGQVQLVESGGGLVQPGGSLRLSCAASGSIENIERMHWYRQAPGKQRELVAVIDSGGTTRYADSVKGRFTISRDNAKNTVYLQMNSLKPEDTAVYYCAAVWLTNAESTQEYWGQGTQVTVSSGGGGSTVILEYAHELSQDILSDALQQSAGGGSGSQVQLVESGGGLVQPGGSLRLSCAASGSIENIERMHWYRQAPGKQRELVAVIDSGGTTRYADSVKGRFTISRDNAKNTVYLQMNSLKPEDTAVYYCAAVWLTNAESTQEYWGQGTQVTVSSHHHHHH
notes: also called pp 2456 (W76S)

Experiments:
[1] = biological target: PP1113 (MBP-5HVZ-PAPA-RN-29-H6); assay: hydrabody complex of smAKAP-linked VHH dimer with 5HVZ homodimer
Experimental: Briefly, to Assess in vitro protease stability of clones, purified protein samples were prepared at 0.2 mg/mL in protease digestion buffer (20 mM Bis-Tris, 150 mM NaCl, 3 mM CaCl2 pH 6.0). The protease enzymes trypsin and chymotrypsin were diluted from 1 mg/mL stalk concentration to 0.2 mg/mL in protease digest buffer. Both the protein and enzyme were diluted 1:10 in protease digestion buffer. The digestion reactions were conducted by mixing 30 μL of diluted protein and 30 μL of diluted protease. The reactions were mixed by centrifugation for 30 seconds at high speed and incubated at 37° C. for 60 minutes with shaking at 900 rpm in an Eppendorf ThermoMixer. Reactions were quenched with an equal volume of stop buffer containing 2 mM PMSF and 2× Pierce protease inhibitor minitablet in PBS. The final concentration of each VHH homodimer after protease neutralization was 0.1 mg/mL. Samples were kept on ice for ELISA assay.
Digested protein samples were analyzed for binding activity via ELISA. High-binding ELISA plates were coated with 100 μl/well of 1 μg/mL SARS-COV-2 RBD in CBC binding buffer and incubated overnight at 4° C. Plates were washed 3× with PBS supplemented with 0.05% Tween-20 (PBS-tw), then blocked for 1 hour with 300 μl/well of blocking buffer (PBS-tw supplemented with 5% Non-fat dried milk). […] Absorbance was read at 450 nm with a Spectra Max M5 plate reader.

[2] = biological target: PP1113 (MBP-5HVZ-PAPA-RN-29-H6); assay: analytical SEC, 5HVZ dimer with smAKAP clone at 1:2 molar ratio

Binder | binding result [1] | binding result [2]
B1 | binds | –
B2 | – | binds
B3 | – | binds
